# Assay results: US20100129369A1 (Eli Lilly, published 2010)
# Assays:
# human c-Met ECD-Fc-Flis [1] = target: T1, human c-Met ECD-Fc-Flis (human); test: HGF-blocking ELISA: HGF signal on coated c-Met ECD-Fc-Flis; Ab 488.28 ng/mL
# T1 construct: c-Met ECD fused to Fc with flag- and His-tag at the C-terminus; also called human c-Met extracellular domain (ECD)-Fc-Flis fusion; human c-Met-Flis-Fc ECD
# Description: (§1) Wells of 96-well EIA/RIA high binding plates (Costar, #2592) are coated with 100 μL of human c-Met ECD-Fc-Flis (SEQ ID NO:72) (2 μg/mL) in Dulbecco's phosphate buffered saline (DPBS) overnight at room temperature; washed four times with wash buffer (Tris-buffered saline, pH 8.0, with 0.05% (v/v) polysorbate 20 (TWEEN®-20) (TBS-T) (BioFX Labs, # WSHW-1000-01) in a plate washer; blocked by adding 300 μL of blocking buffer (TBS-T plus 1% (w/v) bovine serum albumin (BSA) (Jackson Immuno, #001-000-162); and incubating for 60 min. at 37° C. Blocking buffer is then removed from the wells and 50 μL of antibodies in blocking buffer at final concentrations as indicated in Table 7 are added into each well, respectively. […] The plates with c-Met antibodies are incubated for 90 min. at 37° C. […] The wells are then washed four times with TBS-T in a plate washer. […] The plates are incubated for 90 min. at room temperature. The wells are again washed four times with TBS-T in a plate washer. 100 μL of a 1:200 dilution of streptavidin-horseradish peroxidase (HRP) (R&D Systems, DY998) in blocking buffer are added to each well. The plates are incubated for 30 min. at room temperature. The wells are washed four times with TBS-T in a plate washer. 100 μL/well of substrate solution (BioFx, #TMBW-1000-01) are then added, and the plates are incubated for 10 min. at room temperature. To stop the reaction, 100 μL/well of stop solution (BioFx, # LSTP-1000-01) are added. The samples are read at a wavelength of 450-570 nm on a microplate reader (Spectra, MAX 190) and no background is subtracted.
# human c-Met ECD-Fc-Flis [2] = target: T1, human c-Met ECD-Fc-Flis; test: HGF-blocking ELISA: HGF signal on coated c-Met ECD-Fc-Flis; Ab 1953.13 ng/mL
# Description: as §1
# human c-Met ECD-Fc-Flis [3] = target: T1, human c-Met ECD-Fc-Flis; test: HGF-blocking ELISA: HGF signal on coated c-Met ECD-Fc-Flis; Ab 0.48 ng/mL
# Description: as §1
# human c-Met ECD-Fc-Flis [4] = target: T1, human c-Met ECD-Fc-Flis; test: HGF-blocking ELISA: HGF signal on coated c-Met ECD-Fc-Flis; Ab 7812.50 ng/mL
# Description: as §1
# human c-Met ECD-Fc-Flis [5] = target: T1, human c-Met ECD-Fc-Flis; test: HGF-blocking ELISA: HGF signal on coated c-Met ECD-Fc-Flis; Ab 7.63 ng/mL
# Description: as §1
# human c-Met ECD-Fc-Flis [6] = target: T1, human c-Met ECD-Fc-Flis; test: HGF-blocking ELISA: HGF signal on coated c-Met ECD-Fc-Flis; Ab 0.00 ng/mL (HGF only)
# Description: as §1
# human c-Met ECD-Fc-Flis [7] = target: T1, human c-Met ECD-Fc-Flis; test: HGF-blocking ELISA: HGF signal on coated c-Met ECD-Fc-Flis; Ab 122.07 ng/mL
# Description: as §1
# human c-Met ECD-Fc-Flis [8] = target: T1, human c-Met ECD-Fc-Flis; test: HGF-blocking ELISA: HGF signal on coated c-Met ECD-Fc-Flis; Ab 30.52 ng/mL
# Description: as §1
# human c-Met ECD-Fc-Flis [9] = target: T1, human c-Met ECD-Fc-Flis; test: HGF-blocking ELISA: HGF signal on coated c-Met ECD-Fc-Flis; Ab 125000.00 ng/mL
# Description: as §1
# human c-Met ECD-Fc-Flis [10] = target: T1, human c-Met ECD-Fc-Flis; test: HGF-blocking ELISA: HGF signal on coated c-Met ECD-Fc-Flis; Ab 1.91 ng/mL
# Description: as §1
# Human c-Met-Flis-Fc ECD [11] = target: T2, Human c-Met-Flis-Fc ECD (human); test: ELISA, coated ECD-Fc, antibody 0.357 ng/mL
# T2 construct: also called human c-Met extracellular domain (ECD)-Fc-Flis fusion; Human cMet-ECD-Fc-Flis
# T2 sequence (chain, as listed by the source limits assumed): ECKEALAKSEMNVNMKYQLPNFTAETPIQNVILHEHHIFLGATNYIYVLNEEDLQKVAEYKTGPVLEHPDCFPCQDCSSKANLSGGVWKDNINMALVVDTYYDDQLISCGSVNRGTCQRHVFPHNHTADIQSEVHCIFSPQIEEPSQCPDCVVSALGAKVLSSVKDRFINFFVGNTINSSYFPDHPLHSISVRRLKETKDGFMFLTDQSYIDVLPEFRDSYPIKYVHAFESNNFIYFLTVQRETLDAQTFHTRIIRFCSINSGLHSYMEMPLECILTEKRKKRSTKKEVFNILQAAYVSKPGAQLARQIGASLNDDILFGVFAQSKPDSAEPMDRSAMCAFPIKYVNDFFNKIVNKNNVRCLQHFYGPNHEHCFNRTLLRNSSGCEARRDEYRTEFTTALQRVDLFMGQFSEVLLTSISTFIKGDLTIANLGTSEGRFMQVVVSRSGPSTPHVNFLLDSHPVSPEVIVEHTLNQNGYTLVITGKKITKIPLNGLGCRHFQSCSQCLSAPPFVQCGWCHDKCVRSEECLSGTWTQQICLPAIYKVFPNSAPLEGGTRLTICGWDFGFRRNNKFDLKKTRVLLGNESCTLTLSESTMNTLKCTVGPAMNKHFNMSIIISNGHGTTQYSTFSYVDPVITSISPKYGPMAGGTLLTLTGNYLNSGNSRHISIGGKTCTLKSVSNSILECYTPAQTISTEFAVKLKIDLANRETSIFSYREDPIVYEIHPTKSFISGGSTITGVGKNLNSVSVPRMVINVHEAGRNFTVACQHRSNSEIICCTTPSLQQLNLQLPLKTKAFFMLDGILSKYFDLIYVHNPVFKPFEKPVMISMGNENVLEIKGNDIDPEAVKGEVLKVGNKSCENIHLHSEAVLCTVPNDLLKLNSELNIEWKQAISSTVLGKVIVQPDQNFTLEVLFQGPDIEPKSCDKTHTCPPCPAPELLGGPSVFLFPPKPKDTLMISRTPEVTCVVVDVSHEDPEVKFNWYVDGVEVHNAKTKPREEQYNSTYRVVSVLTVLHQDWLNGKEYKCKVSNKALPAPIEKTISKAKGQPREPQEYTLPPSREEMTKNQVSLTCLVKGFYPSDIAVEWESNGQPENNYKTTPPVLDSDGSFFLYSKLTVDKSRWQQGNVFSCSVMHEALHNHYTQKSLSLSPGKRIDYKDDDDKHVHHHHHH
# Description: (§2) Wells of 96-well EIA/RIA high binding plates (Costar, #2592) are coated with 100 μL of 1 μg/mL human c-Met extracellular domain (ECD)-Fc-Flis fusion (SEQ ID NO:72), RON-ECD-Fc (R&D Systems, #1947-MS), or PlexinA2-ECD-Fc (Abnova, Taipei, Taiwan #H00005362-P01) in coating buffer (BioFX Labs, # COAT-1000-01) overnight at 4° C. […] After the plates are washed, 100 μL/well of substrate solution (BioFx, #TMBW-1000-01) are added and the plates are incubated for 10 min. at room temperature. 100 μL/well of stop solution (BioFx, # LSTP-1000-01) are added to stop the reaction. The colorimetric signals are developed and read at 450 nm using a SpectraMax 190 plate reader (Molecular Devices, Sunnyvale, Calif.). c-Met antibody binding to c-Met, RON and PlexinA2 ECDs is proportional to color signal production.
# Human c-Met-Flis-Fc ECD [12] = target: T2, Human c-Met-Flis-Fc ECD; test: ELISA, coated ECD-Fc, antibody 0.060 ng/mL
# Description: as §2
# Human c-Met-Flis-Fc ECD [13] = target: T2, Human c-Met-Flis-Fc ECD; test: ELISA, coated ECD-Fc, antibody 12.860 ng/mL
# Description: as §2
# Human c-Met-Flis-Fc ECD [14] = target: T2, Human c-Met-Flis-Fc ECD; test: ELISA, coated ECD-Fc, antibody 2.143 ng/mL
# Description: as §2
# Human c-Met-Flis-Fc ECD [15] = target: T2, Human c-Met-Flis-Fc ECD; test: ELISA, coated ECD-Fc, antibody 77.160 ng/mL
# Description: as §2
# Rat c-Met-Flis-Fc ECD = target: T3, Rat c-Met-Flis-Fc ECD (rat); test: SPR Biacore, antibody captured, ECD-Fc analyte, 1:1 model
# T3 construct: also called Rat cMet-ECD-Fc-Flis; rat c-Met ECD
# T3 sequence (chain, as listed by the source limits assumed): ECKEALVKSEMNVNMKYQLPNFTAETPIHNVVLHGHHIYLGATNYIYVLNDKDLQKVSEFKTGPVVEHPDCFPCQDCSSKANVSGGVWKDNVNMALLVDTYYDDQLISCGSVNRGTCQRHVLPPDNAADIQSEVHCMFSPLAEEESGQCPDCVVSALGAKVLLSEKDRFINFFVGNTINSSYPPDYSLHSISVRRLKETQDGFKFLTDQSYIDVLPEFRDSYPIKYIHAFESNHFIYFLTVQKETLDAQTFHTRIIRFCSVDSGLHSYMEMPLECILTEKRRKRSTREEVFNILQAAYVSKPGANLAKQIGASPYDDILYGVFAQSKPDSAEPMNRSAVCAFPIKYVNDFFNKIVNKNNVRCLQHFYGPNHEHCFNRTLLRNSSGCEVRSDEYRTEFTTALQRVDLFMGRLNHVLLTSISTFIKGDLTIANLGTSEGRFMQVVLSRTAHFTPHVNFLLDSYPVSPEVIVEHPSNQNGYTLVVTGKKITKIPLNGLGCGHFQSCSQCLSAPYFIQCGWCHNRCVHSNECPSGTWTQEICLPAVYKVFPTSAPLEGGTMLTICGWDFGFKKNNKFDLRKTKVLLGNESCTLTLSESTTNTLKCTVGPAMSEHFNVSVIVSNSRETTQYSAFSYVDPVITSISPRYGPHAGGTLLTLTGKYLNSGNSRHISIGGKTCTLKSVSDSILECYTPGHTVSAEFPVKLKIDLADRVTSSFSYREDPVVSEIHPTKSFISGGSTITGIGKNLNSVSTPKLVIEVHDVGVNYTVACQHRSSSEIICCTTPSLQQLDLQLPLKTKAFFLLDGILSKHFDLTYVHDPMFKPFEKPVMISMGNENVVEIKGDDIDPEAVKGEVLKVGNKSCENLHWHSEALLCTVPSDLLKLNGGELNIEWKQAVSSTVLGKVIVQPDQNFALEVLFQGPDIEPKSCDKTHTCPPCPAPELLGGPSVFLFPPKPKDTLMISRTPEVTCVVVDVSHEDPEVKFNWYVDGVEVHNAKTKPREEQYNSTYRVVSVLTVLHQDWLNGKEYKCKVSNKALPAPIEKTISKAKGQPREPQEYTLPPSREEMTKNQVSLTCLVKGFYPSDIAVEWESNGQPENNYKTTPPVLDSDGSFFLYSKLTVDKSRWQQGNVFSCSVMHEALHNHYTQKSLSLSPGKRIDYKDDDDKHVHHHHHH
# Description: (§3) A Biacore® 2000 instrument is used to measure the binding kinetics of c-Met antibodies to human, cynomolgus monkey, and rat c-Met ECDs. Measurements are performed at 25° C. Samples are dissolved in HBS-EP buffer (150 mM sodium chloride, 3 mM EDTA, 0.005% (w/v) surfactant P-20, and 10 mM N-2-hydroxyethylpiperazine-N′-2-ethanesulfonic acid (HEPES) at pH 7.4; #BR-1001-88).
# (§4) Binding is evaluated using multiple cycles. Each cycle is performed at a flow rate of 50 μL/min., and consists of the following steps: injection of about 10 μL of a c-Met antibody at 10 μg/mL aiming at a capture of 40-100 RUs, injection of 250 μL of human, cynomolgus, or rat c-Met-Flis-Fc ECD (starting at 100 nM and using two-fold serial dilutions for each cycle) followed by 20 min. for dissociation, and regeneration using about 30 μL of 10 mM glycine hydrochloride, pH 1.5. Association and dissociation rates for each cycle are evaluated using a “1:1 (Langmuir) binding” model in the BIAevaluation software, version 4.1.
# Human c-Met-Flis-Fc ECD [16] = target: T2, Human c-Met-Flis-Fc ECD; test: as above
# Description: as §3, §4
# [17] = target: T4, Cynomolgus Monkey c-Met-Flis-Fc ECD (cynomolgus monkey); test: as above
# T4 construct: also called Cynomolgus Monkey cMet-ECD-Fc-Flis; cynomolgus monkey c-Met ECD
# T4 sequence (chain, as listed by the source limits assumed): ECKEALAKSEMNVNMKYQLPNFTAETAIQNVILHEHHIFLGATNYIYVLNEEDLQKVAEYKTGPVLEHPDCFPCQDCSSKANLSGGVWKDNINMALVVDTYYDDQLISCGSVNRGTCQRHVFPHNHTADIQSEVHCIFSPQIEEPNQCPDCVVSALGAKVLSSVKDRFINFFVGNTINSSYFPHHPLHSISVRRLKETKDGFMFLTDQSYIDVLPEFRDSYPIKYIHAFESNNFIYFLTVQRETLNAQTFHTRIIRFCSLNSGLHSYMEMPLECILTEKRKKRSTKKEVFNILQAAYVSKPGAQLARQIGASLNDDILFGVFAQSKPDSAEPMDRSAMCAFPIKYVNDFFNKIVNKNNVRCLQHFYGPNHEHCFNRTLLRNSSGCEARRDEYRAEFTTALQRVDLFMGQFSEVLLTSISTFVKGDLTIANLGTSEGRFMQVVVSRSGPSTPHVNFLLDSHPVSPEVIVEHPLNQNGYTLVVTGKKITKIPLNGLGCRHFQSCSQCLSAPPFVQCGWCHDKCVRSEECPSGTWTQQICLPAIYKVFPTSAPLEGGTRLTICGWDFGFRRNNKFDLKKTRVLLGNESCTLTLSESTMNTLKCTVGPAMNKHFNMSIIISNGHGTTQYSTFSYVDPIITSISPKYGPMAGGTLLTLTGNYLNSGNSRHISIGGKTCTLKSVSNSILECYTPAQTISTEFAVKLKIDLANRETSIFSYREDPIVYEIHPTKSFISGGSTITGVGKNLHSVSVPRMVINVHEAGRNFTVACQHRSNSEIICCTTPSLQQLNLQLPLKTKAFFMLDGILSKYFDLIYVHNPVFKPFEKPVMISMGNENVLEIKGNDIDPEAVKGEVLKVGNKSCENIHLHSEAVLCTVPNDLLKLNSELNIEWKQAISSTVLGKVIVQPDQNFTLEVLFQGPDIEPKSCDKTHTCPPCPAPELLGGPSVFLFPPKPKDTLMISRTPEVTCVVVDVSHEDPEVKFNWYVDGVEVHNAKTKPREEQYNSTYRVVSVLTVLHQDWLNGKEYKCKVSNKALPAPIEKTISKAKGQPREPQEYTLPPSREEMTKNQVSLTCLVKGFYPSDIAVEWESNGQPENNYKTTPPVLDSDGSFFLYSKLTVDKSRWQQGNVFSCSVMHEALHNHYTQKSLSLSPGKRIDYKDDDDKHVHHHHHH
# Description: as §3, §4
# Human c-Met-Flis-Fc ECD [18] = target: T2, Human c-Met-Flis-Fc ECD; test: ELISA, coated ECD-Fc, antibody 0.000 ng/mL
# Description: as §2
# Human c-Met-Flis-Fc ECD [19] = target: T2, Human c-Met-Flis-Fc ECD; test: ELISA, coated ECD-Fc, antibody 0.010 ng/mL
# Description: as §2
# Human c-Met-Flis-Fc ECD [20] = target: T2, Human c-Met-Flis-Fc ECD; test: ELISA, coated ECD-Fc, antibody 16666.667 ng/mL
# Description: as §2
# Human c-Met-Flis-Fc ECD [21] = target: T2, Human c-Met-Flis-Fc ECD; test: ELISA, coated ECD-Fc, antibody 100000.000 ng/mL
# Description: as §2
# Human c-Met-Flis-Fc ECD [22] = target: T2, Human c-Met-Flis-Fc ECD; test: ELISA, coated ECD-Fc, antibody 462.963 ng/mL
# Description: as §2
# Human c-Met-Flis-Fc ECD [23] = target: T2, Human c-Met-Flis-Fc ECD; test: ELISA, coated ECD-Fc, antibody 2777.778 ng/mL
# Description: as §2
# Human c-Met-Flis-Fc ECD [24] = target: T2, Human c-Met-Flis-Fc ECD; test: ELISA, coated ECD-Fc, antibody 0.002 ng/mL
# Description: as §2
Binder,Average A450 nm (Human c-Met-Flis-Fc ECD [11]),Average A450 nm (Human c-Met-Flis-Fc ECD [12]),Average A450 nm (Human c-Met-Flis-Fc ECD [13]),Average A450 nm (Human c-Met-Flis-Fc ECD [14]),Average A450 nm (Human c-Met-Flis-Fc ECD [15]),Kd (Rat c-Met-Flis-Fc ECD),koff (Rat c-Met-Flis-Fc ECD),kon (Rat c-Met-Flis-Fc ECD),Kd (Human c-Met-Flis-Fc ECD [16]),koff (Human c-Met-Flis-Fc ECD [16]),kon (Human c-Met-Flis-Fc ECD [16]),Kd [17],koff [17],kon [17],Average A450 nm (Human c-Met-Flis-Fc ECD [18]),Average A450 nm (Human c-Met-Flis-Fc ECD [19]),Average A450 nm (Human c-Met-Flis-Fc ECD [20]),Average A450 nm (Human c-Met-Flis-Fc ECD [21]),Average A450 nm (Human c-Met-Flis-Fc ECD [22]),Average A450 nm (Human c-Met-Flis-Fc ECD [23]),other results
"C8-H241 (antibody, human IgG2, kappa, V domains shown, Named IgG4 kappa; also called Mab C8-H241) VH: QVQLVQSGAEVKKPGASVKVSCKASGYTFTDYYMHWVRQAPGQGLEWMGRVNPNRRGTTYNQKFEGRVTMTTDTSTSTAYMELRSLRSDDTAVYYCARANWLDYWGQGTTVTVSS VL: DIQMTQSPSSLSASVGDRVTITCSVSSSVSSIYLHWYQQKPGKAPKLLIYSTSNLASGVPSRFSGSGSGTDFTLTISSLQPEDFATYYCQVYSGYPLTFGGGTKVEIKR",,,,,,,,,,,,,,,,,,,,,AVG A450 nm (human c-Met ECD-Fc-Flis [1]): 0.73 A450 nm; AVG A450 nm (human c-Met ECD-Fc-Flis [2]): 0.68 A450 nm; AVG A450 nm (human c-Met ECD-Fc-Flis [3]): 2.45 A450 nm; AVG A450 nm (human c-Met ECD-Fc-Flis [4]): 0.7 A450 nm; AVG A450 nm (human c-Met ECD-Fc-Flis [5]): 2.53 A450 nm; AVG A450 nm (human c-Met ECD-Fc-Flis [6]): 2.61 A450 nm; AVG A450 nm (human c-Met ECD-Fc-Flis [7]): 1.77 A450 nm; AVG A450 nm (human c-Met ECD-Fc-Flis [8]): 2.42 A450 nm; AVG A450 nm (human c-Met ECD-Fc-Flis [9]): 0.69 A450 nm; AVG A450 nm (human c-Met ECD-Fc-Flis [10]): 2.46 A450 nm
"D11-8B8 (antibody, human IgG2, kappa, V domains shown, Human engineered IgG2, kappa; expressed in HEK293 EBNA cells; also called Mab D11-8B8) VH: QVQLVQSGAEVKKPGSSVKVSCKASGYTFTSRYIHWVRQAPGQGLEWMGWIYPVTGDTYYIEKFKGRVTITADKSTSTAYMELSSLRSEDTAVYYCARGYGAFFYWGQGTLVTVSS VL: EIVLTQSPGTLSLSPGERATLSCSVSSSISSTNLHWYQQKPGQAPRLLIYGTSYLASGIPDRFSGSGSGTDFTLTISRLEPEDFAVYYCQQWSSYPYSFGQGTKLEIKR",1.31 A450 nm,0.445 A450 nm,3.93 A450 nm,2.42 A450 nm,4 A450 nm,0.89 nM,0.00019 s⁻¹,210000 M⁻¹ s⁻¹,0.5 nM,5e-05 s⁻¹,100000 M⁻¹ s⁻¹,2.9 nM,0.000223 s⁻¹,78000 M⁻¹ s⁻¹,0.297 A450 nm,0.304 A450 nm,4 A450 nm,4 A450 nm,4 A450 nm,4 A450 nm,Average A450 nm (Human c-Met-Flis-Fc ECD [24]): 0.299 A450 nm
"D11-C27G3 (antibody, human IgG2, kappa, V domains shown, Human engineered IgG2, kappa; also called D11-27G3) VH: QVQLVQSGAEVKKPGSSVKVSCKASGYTFTSRYIHWVRQAPGQGLEWMGWIYPVTGDTYYREPFKGRVTITADKSTSTAYMELSSLRSEDTAVYYCARGYGAFYYWGQGTLVTVSS VL: EIVLTQSPGTLSLSPGERATLSCSVSSSISSTNLHWYQQKPGQAPRLLIYGTSRLRSGIPDRFSGSGSGTDFTLTISRLEPEDFAVYYCQQWSSYPYSFGQGTKLEIKR",1.44 A450 nm,0.46 A450 nm,4 A450 nm,2.53 A450 nm,4 A450 nm,2.7 nM,0.00034 s⁻¹,130000 M⁻¹ s⁻¹,1.4 nM,9e-05 s⁻¹,64000 M⁻¹ s⁻¹,6.5 nM,0.00032 s⁻¹,50000 M⁻¹ s⁻¹,0.284 A450 nm,0.29 A450 nm,4 A450 nm,3.92 A450 nm,4 A450 nm,4 A450 nm,Average A450 nm (Human c-Met-Flis-Fc ECD [24]): 0.271 A450 nm
